For one substance, stoichiometry N results are on record in paper PMC5992710.

What is called stoichiometry N is a count of units in the complex or per binding partner.

The target in experiment [1] is recombinant 0076 protein (ferritin encoded by mycma_0076) from Mycobacterium abscessus subsp. massiliense GO06 (Mycobacterium abscessus subsp. massiliense GO06). Put plainly: SEC; Superdex 200 10/300 GL, 50 mM NaH2PO4 pH 8.0, 300 mM NaCl, 1 ml/min, calibrated with molecular weight standards; apparent mass. (In general: SEC sorts molecules by how far they enter the pores of the column.)

Experiment [2] has the same target. Put plainly: dynamic light scattering; r0076 1 mg/ml in 50 mM NaH2PO4 pH 8.0, 50 mM NaCl; RH converted to mass assuming a spherical particle; 20 to 90°C.

Consider “recombinant 0076 protein (ferritin encoded by mycma_0076) from Mycobacterium abscessus subsp. massiliense GO06 (natural protein)”, for which the stoichiometry N in experiment [1] and in experiment [2] was 24 subunits in each case.
